Starred links: 1 amine or outer side, 2 acyl side, 3 side chain; linkers in the order of their positions; H or OH if unused. Non-standard residues stand in square brackets, D forms with d. Groups on a side chain read outwards from the residue. *: point of attachment. C18 diacid = O=C(O)CCCCCCCCCCCCCCCCC(=O)*; γGlu = O=C(O)[C@H](CCC(=O)[*:2])N[*:1]; AEEA = NCCOCCOCC(=O)O; Aib = CC(C)(N)C(=O)O
T1: full-length human GIPR with an N-terminal FLAG tag, overexpressed on HEK-293T cells (human, UniProt P48546 22-466)
T1 sequence (looked up): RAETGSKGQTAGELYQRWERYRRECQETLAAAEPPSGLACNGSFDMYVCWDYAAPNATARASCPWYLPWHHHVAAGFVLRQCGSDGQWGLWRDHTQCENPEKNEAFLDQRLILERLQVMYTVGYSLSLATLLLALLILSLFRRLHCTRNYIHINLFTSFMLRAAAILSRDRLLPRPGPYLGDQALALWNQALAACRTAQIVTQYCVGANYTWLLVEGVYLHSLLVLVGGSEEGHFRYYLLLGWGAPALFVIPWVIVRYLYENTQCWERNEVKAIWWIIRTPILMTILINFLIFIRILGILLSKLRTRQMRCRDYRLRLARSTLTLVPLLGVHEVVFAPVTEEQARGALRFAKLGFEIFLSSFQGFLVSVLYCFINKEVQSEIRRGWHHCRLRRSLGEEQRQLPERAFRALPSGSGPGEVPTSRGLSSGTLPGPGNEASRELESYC


Experiments:
[1] = molecular target: full-length human GLP-1R with an N-terminal FLAG tag, overexpressed on HEK-293T cells (human, UniProt P43220 24-463); assay: cell-based or functional assay
[2] = molecular target: T1, full-length human GIPR with an …; assay: cell-based or functional assay

Binder	Human GLP1R cAMP EC50, HEK293T [1] [nM]	Human GIPR cAMP EC50, HEK293T [2] [nM]
H-Y[Aib]EGTFISDYSI[Aib]LDKAK([AEEA-AEEA-γGlu-C18 diacid])QQDFVEWLLAQRG-OH (SMILES CC[C@H](C)[C@H](NC(=O)[C@H](Cc1ccccc1)NC(=O)[C@@H](NC(=O)CNC(=O)[C@H](CCC(=O)O)NC(=O)C(C)(C)NC(=O)[C@@H](N)Cc1ccc(O)cc1)[C@@H](C)O)C(=O)N[C@@H](CO)C(=O)N[C@@H](CC(=O)O)C(=O)N[C@@H](Cc1ccc(O)cc1)C(=O)N[C@@H](CO)C(=O)N[C@H](C(=O)NC(C)(C)C(=O)N[C@@H](CC(C)C)C(=O)N[C@@H](CC(=O)O)C(=O)N[C@@H](CCCCN)C(=O)N[C@@H](C)C(=O)N[C@@H](CCCCNC(=O)COCCOCCNC(=O)COCCOCCNC(=O)CC[C@H](NC(=O)CCCCCCCCCCCCCCCCC(=O)O)C(=O)O)C(=O)N[C@@H](CCC(N)=O)C(=O)N[C@@H](CCC(N)=O)C(=O)N[C@@H](CC(=O)O)C(=O)N[C@@H](Cc1ccccc1)C(=O)N[C@H](C(=O)N[C@@H](CCC(=O)O)C(=O)N[C@@H](Cc1c[nH]c2ccccc12)C(=O)N[C@@H](CC(C)C)C(=O)N[C@@H](CC(C)C)C(=O)N[C@@H](C)C(=O)N[C@@H](CCC(N)=O)C(=O)N[C@@H](CCCNC(=N)N)C(=O)NCC(=O)O)C(C)C)[C@@H](C)CC) [Compound No. 169]	178	0.0008
H-Y[Aib]EGTFISDYSI[Aib]LDKAK([AEEA-AEEA-γGlu-C18 diacid])QQDFVNWLLAQRG-OH (SMILES CC[C@H](C)[C@H](NC(=O)[C@H](Cc1ccccc1)NC(=O)[C@@H](NC(=O)CNC(=O)[C@H](CCC(=O)O)NC(=O)C(C)(C)NC(=O)[C@@H](N)Cc1ccc(O)cc1)[C@@H](C)O)C(=O)N[C@@H](CO)C(=O)N[C@@H](CC(=O)O)C(=O)N[C@@H](Cc1ccc(O)cc1)C(=O)N[C@@H](CO)C(=O)N[C@H](C(=O)NC(C)(C)C(=O)N[C@@H](CC(C)C)C(=O)N[C@@H](CC(=O)O)C(=O)N[C@@H](CCCCN)C(=O)N[C@@H](C)C(=O)N[C@@H](CCCCNC(=O)COCCOCCNC(=O)COCCOCCNC(=O)CC[C@H](NC(=O)CCCCCCCCCCCCCCCCC(=O)O)C(=O)O)C(=O)N[C@@H](CCC(N)=O)C(=O)N[C@@H](CCC(N)=O)C(=O)N[C@@H](CC(=O)O)C(=O)N[C@@H](Cc1ccccc1)C(=O)N[C@H](C(=O)N[C@@H](CC(N)=O)C(=O)N[C@@H](Cc1c[nH]c2ccccc12)C(=O)N[C@@H](CC(C)C)C(=O)N[C@@H](CC(C)C)C(=O)N[C@@H](C)C(=O)N[C@@H](CCC(N)=O)C(=O)N[C@@H](CCCNC(=N)N)C(=O)NCC(=O)O)C(C)C)[C@@H](C)CC) [Compound No. 170]	61.7	0.0005
H-Y[Aib]EGTFISDYSI[Aib]LDKAAQAK([AEEA-AEEA-γGlu-γGlu-C18 diacid])FVEWLLAQRG-OH (SMILES CC[C@H](C)[C@H](NC(=O)[C@H](Cc1ccccc1)NC(=O)[C@@H](NC(=O)CNC(=O)[C@H](CCC(=O)O)NC(=O)C(C)(C)NC(=O)[C@@H](N)Cc1ccc(O)cc1)[C@@H](C)O)C(=O)N[C@@H](CO)C(=O)N[C@@H](CC(=O)O)C(=O)N[C@@H](Cc1ccc(O)cc1)C(=O)N[C@@H](CO)C(=O)N[C@H](C(=O)NC(C)(C)C(=O)N[C@@H](CC(C)C)C(=O)N[C@@H](CC(=O)O)C(=O)N[C@@H](CCCCN)C(=O)N[C@@H](C)C(=O)N[C@@H](C)C(=O)N[C@@H](CCC(N)=O)C(=O)N[C@@H](C)C(=O)N[C@@H](CCCCNC(=O)COCCOCCNC(=O)COCCOCCNC(=O)CC[C@H](NC(=O)CC[C@H](NC(=O)CCCCCCCCCCCCCCCCC(=O)O)C(=O)O)C(=O)O)C(=O)N[C@@H](Cc1ccccc1)C(=O)N[C@H](C(=O)N[C@@H](CCC(=O)O)C(=O)N[C@@H](Cc1c[nH]c2ccccc12)C(=O)N[C@@H](CC(C)C)C(=O)N[C@@H](CC(C)C)C(=O)N[C@@H](C)C(=O)N[C@@H](CCC(N)=O)C(=O)N[C@@H](CCCNC(=N)N)C(=O)NCC(=O)O)C(C)C)[C@@H](C)CC) [Compound No. 168]	16.6	0.0009

Source: US20230143604A1, “QW DOSING OF GIP RECEPTOR AGONIST PEPTIDE COMPOUNDS AND USES THEREOF” (TAKEDA PHARMACEUTICAL COMPANY LIMITED, priority 2020, published 2023)
